According to patent US20260193293A1, “PEPTIDES CAPABLE OF INHIBITING PROTEIN-PROTEIN INTERACTIONS AT GABAB1A SUBUNIT AND USES THEREOF” (UNIVERSITY OF COPENHAGEN, priority 2022, published 2026):
Non-standard residues stand in square brackets, D forms with d. NMeW = CN[C@@H](Cc1c[nH]c2ccccc12)C(=O)O; NMeR = CN[C@@H](CCCNC(=N)N)C(=O)O; NMeT = CN[C@H](C(=O)O)[C@@H](C)O; NMeE = CN[C@@H](CCC(=O)O)C(=O)O; NMeD = CN[C@@H](CC(=O)O)C(=O)O; NMeV = CN[C@H](C(=O)O)C(C)C; NMeS = CN[C@@H](CO)C(=O)O; Sar = CNCC(=O)O

Biological target: Sushi domains (SD1/2) protein of the GABAB1a (GB1a) subunit, recombinant
Sequence (Q9Z0U4 29-158): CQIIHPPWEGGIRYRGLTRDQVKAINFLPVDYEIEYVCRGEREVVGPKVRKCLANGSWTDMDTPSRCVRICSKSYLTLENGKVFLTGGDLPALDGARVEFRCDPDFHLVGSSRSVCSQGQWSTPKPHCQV
Assay: FP competition

Row | Binder | Ki [nM]
1 | Ac-RRRRRRRREAAAKEDDDWIDWYDSDDD-NH2 [R8-RL-16 (…)] | 314
2 | Ac-EDDSFVWWGGADTD-NH2 | 142
3 | Ac-EDDSDVWWHGADTD-NH2 | 270
4 | Ac-EDDSDVWWGGHDTD-NH2 | 346
5 | Ac-RRRRRRRRGGGGSEDDDWIDWGPTSDDD-NH2 [R8-FL-17 (…)] | 140
6 | Ac-EDDSDVIWGGADTD-NH2 | 951
7 | Ac-EDDDWIDWYDSDDDEAAAKRRRRRRRR-NH2 [16-RL-R8 (…)] | 100
8 | Ac-RRRRRRRREAAAKEDDDWIDWGPTSDDD-NH2 [R8-RL-17 (…)] | 105
9 | Ac-RRRRRRRRGGGGSEDDDWIDWYDSDDD-NH2 [R8-FL-16 (…)] | 280
10 | Ac-PWAIV[NMeW]GPTVSRED-NH2 (SMILES CC[C@H](C)[C@H](NC(=O)[C@H](C)NC(=O)[C@H](Cc1c[nH]c2ccccc12)NC(=O)[C@@H]1CCCN1C(C)=O)C(=O)N[C@H](C(=O)N(C)[C@@H](Cc1c[nH]c2ccccc12)C(=O)NCC(=O)N1CCC[C@H]1C(=O)N[C@H](C(=O)N[C@H](C(=O)N[C@@H](CO)C(=O)N[C@@H](CCCNC(=N)N)C(=O)N[C@@H](CCC(=O)O)C(=O)N[C@@H](CC(=O)O)C(N)=O)C(C)C)[C@@H](C)O)C(C)C) [PWAIV(N-Me-W)GPTVSRED] | 636
11 | Ac-EDDSDVWWGGYDTD-NH2 | 255
12 | Ac-EDDWDVWWGGADTD-NH2 | 257
13 | Ac-EDDSDVWWGGADHD-NH2 | 739
14 | Ac-EDDSDVWWGPADTD-NH2 | 332
15 | Ac-EDDDWIDWYDSDDDRRRRRRRR-NH2 [16-R8 (…)] | 65
16 | Ac-EDDSDIWWGGADTD-NH2 | 401
17 | Ac-PWAIVWGP[NMeT]VSRED-NH2 (SMILES CC[C@H](C)[C@H](NC(=O)[C@H](C)NC(=O)[C@H](Cc1c[nH]c2ccccc12)NC(=O)[C@@H]1CCCN1C(C)=O)C(=O)N[C@H](C(=O)N[C@@H](Cc1c[nH]c2ccccc12)C(=O)NCC(=O)N1CCC[C@H]1C(=O)N(C)[C@H](C(=O)N[C@H](C(=O)N[C@@H](CO)C(=O)N[C@@H](CCCNC(=N)N)C(=O)N[C@@H](CCC(=O)O)C(=O)N[C@@H](CC(=O)O)C(N)=O)C(C)C)[C@@H](C)O)C(C)C) [PWAIVWGP(N-Me-T)VSRED] | 1260
18 | Ac-EDDDWIDWGPTSDDDRRRRRRRR-NH2 [17-R8 (…)] | 123
19 | Ac-EDDDWIDWGPTSDDDGGGGSRRRRRRRR-NH2 [17-FL-R8 (…)] | 147
20 | Ac-EDDDWIDWGPTSDDDEAAAKRRRRRRRR-NH2 [17-RL-R8 (…)] | 139
21 | Ac-PWAI[NMeV]WGPTVSRED-NH2 (SMILES CC[C@H](C)[C@H](NC(=O)[C@H](C)NC(=O)[C@H](Cc1c[nH]c2ccccc12)NC(=O)[C@@H]1CCCN1C(C)=O)C(=O)N(C)[C@H](C(=O)N[C@@H](Cc1c[nH]c2ccccc12)C(=O)NCC(=O)N1CCC[C@H]1C(=O)N[C@H](C(=O)N[C@H](C(=O)N[C@@H](CO)C(=O)N[C@@H](CCCNC(=N)N)C(=O)N[C@@H](CCC(=O)O)C(=O)N[C@@H](CC(=O)O)C(N)=O)C(C)C)[C@@H](C)O)C(C)C) [PWAI(N-Me-V)…] | 7000
22 | Ac-RRRRRRRREDDDWIDWGPTSDDD-NH2 [R8-17 (Ac-…-NH2)] | 58
23 | Ac-EDDDWIDWYDSDDDGGGGSRRRRRRRR-NH2 [16-FL-R8 (…)] | 118
24 | Ac-PWAIVW[Sar]PTVSRED-NH2 (SMILES CC[C@H](C)[C@H](NC(=O)[C@H](C)NC(=O)[C@H](Cc1c[nH]c2ccccc12)NC(=O)[C@@H]1CCCN1C(C)=O)C(=O)N[C@H](C(=O)N[C@@H](Cc1c[nH]c2ccccc12)C(=O)N(C)CC(=O)N1CCC[C@H]1C(=O)N[C@H](C(=O)N[C@H](C(=O)N[C@@H](CO)C(=O)N[C@@H](CCCNC(=N)N)C(=O)N[C@@H](CCC(=O)O)C(=O)N[C@@H](CC(=O)O)C(N)=O)C(C)C)[C@@H](C)O)C(C)C) [PWAIVW(N-Me-G)PTVSRED] | 58300

The remaining lines, values ahead:

Row | Ki [nM] | Binder
25 | 1040 | Ac-PWAIVWGPTV[NMeS]RED-NH2 (SMILES CC[C@H](C)[C@H](NC(=O)[C@H](C)NC(=O)[C@H](Cc1c[nH]c2ccccc12)NC(=O)[C@@H]1CCCN1C(C)=O)C(=O)N[C@H](C(=O)N[C@@H](Cc1c[nH]c2ccccc12)C(=O)NCC(=O)N1CCC[C@H]1C(=O)N[C@H](C(=O)N[C@H](C(=O)N(C)[C@@H](CO)C(=O)N[C@@H](CCCNC(=N)N)C(=O)N[C@@H](CCC(=O)O)C(=O)N[C@@H](CC(=O)O)C(N)=O)C(C)C)[C@@H](C)O)C(C)C) […(N-Me-S)RED]
26 | 1780 | Ac-PWAIVWGPT[NMeV]SRED-NH2 (SMILES CC[C@H](C)[C@H](NC(=O)[C@H](C)NC(=O)[C@H](Cc1c[nH]c2ccccc12)NC(=O)[C@@H]1CCCN1C(C)=O)C(=O)N[C@H](C(=O)N[C@@H](Cc1c[nH]c2ccccc12)C(=O)NCC(=O)N1CCC[C@H]1C(=O)N[C@H](C(=O)N(C)[C@H](C(=O)N[C@@H](CO)C(=O)N[C@@H](CCCNC(=N)N)C(=O)N[C@@H](CCC(=O)O)C(=O)N[C@@H](CC(=O)O)C(N)=O)C(C)C)[C@@H](C)O)C(C)C) […(N-Me-V)SRED]
27 | 523 | Ac-PWAIVWGPTVSR[NMeE]D-NH2 (SMILES CC[C@H](C)[C@H](NC(=O)[C@H](C)NC(=O)[C@H](Cc1c[nH]c2ccccc12)NC(=O)[C@@H]1CCCN1C(C)=O)C(=O)N[C@H](C(=O)N[C@@H](Cc1c[nH]c2ccccc12)C(=O)NCC(=O)N1CCC[C@H]1C(=O)N[C@H](C(=O)N[C@H](C(=O)N[C@@H](CO)C(=O)N[C@@H](CCCNC(=N)N)C(=O)N(C)[C@@H](CCC(=O)O)C(=O)N[C@@H](CC(=O)O)C(N)=O)C(C)C)[C@@H](C)O)C(C)C) […(N-Me-E)D]
28 | 502 | Ac-PWAIVWGPTVS[NMeR]ED-NH2 (SMILES CC[C@H](C)[C@H](NC(=O)[C@H](C)NC(=O)[C@H](Cc1c[nH]c2ccccc12)NC(=O)[C@@H]1CCCN1C(C)=O)C(=O)N[C@H](C(=O)N[C@@H](Cc1c[nH]c2ccccc12)C(=O)NCC(=O)N1CCC[C@H]1C(=O)N[C@H](C(=O)N[C@H](C(=O)N[C@@H](CO)C(=O)N(C)[C@@H](CCCNC(=N)N)C(=O)N[C@@H](CCC(=O)O)C(=O)N[C@@H](CC(=O)O)C(N)=O)C(C)C)[C@@H](C)O)C(C)C) […(N-Me-R)ED]
29 | 4800 | Ac-EDDSDVDWGGADTD-NH2
30 | 459 | Ac-EDDSDVWWGGADWD-NH2
31 | 204 | Ac-EDDSDVWWGGSDTD-NH2
32 | 191 | Ac-EDDSYVWWGGADTD-NH2
33 | 337 | Ac-EDDSDVWWGGADED-NH2
34 | 429 | Ac-EDDSDVWWDGADTD-NH2
35 | 3600 | Ac-EDDSDVYWGGADTD-NH2
36 | 434 | Ac-PWAIVWGPTVSRE[NMeD]-NH2 (SMILES CC[C@H](C)[C@H](NC(=O)[C@H](C)NC(=O)[C@H](Cc1c[nH]c2ccccc12)NC(=O)[C@@H]1CCCN1C(C)=O)C(=O)N[C@H](C(=O)N[C@@H](Cc1c[nH]c2ccccc12)C(=O)NCC(=O)N1CCC[C@H]1C(=O)N[C@H](C(=O)N[C@H](C(=O)N[C@@H](CO)C(=O)N[C@@H](CCCNC(=N)N)C(=O)N[C@@H](CCC(=O)O)C(=O)N(C)[C@@H](CC(=O)O)C(N)=O)C(C)C)[C@@H](C)O)C(C)C) […(N-Me-D)]
37 | 1520 | Ac-KDDSDVWWGGADTD-NH2
38 | 243 | Ac-EDDSIVWWGGADTD-NH2
